Columns and labels:
EBOV GP = biological target: T1, EBOV GP (Ebola virus (EBOV), UniProt Q05320 33-650); assay: ELISA, EBOV GP coated at 1 μg/mL
T1 sequence: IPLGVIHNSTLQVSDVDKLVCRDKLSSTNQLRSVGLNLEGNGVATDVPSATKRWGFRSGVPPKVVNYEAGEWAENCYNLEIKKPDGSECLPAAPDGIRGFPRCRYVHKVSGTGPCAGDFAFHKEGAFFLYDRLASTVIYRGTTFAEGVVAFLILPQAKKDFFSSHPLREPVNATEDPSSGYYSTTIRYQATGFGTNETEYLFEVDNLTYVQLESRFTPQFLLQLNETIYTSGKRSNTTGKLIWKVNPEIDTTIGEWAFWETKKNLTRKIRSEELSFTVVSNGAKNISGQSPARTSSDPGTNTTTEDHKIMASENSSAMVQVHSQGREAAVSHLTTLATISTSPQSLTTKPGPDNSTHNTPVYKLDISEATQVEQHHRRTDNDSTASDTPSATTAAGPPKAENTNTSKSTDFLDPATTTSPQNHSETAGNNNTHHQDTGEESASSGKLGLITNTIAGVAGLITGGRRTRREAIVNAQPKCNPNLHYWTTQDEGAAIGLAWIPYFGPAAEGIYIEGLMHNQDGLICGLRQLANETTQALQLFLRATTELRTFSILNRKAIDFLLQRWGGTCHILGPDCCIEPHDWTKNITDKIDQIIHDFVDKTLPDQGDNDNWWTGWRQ

sGP = sGP (Ebola virus (EBOV), UniProt P60170 33-295); assay: ELISA on coated truncated GP
GP 95-295 = GP 95-295 (Ebola virus (EBOV), UniProt Q05320 95-295); assay: ELISA on coated truncated GP
GP1 = GP1 (Ebola virus (EBOV), UniProt Q05320 33-501); assay: ELISA on coated truncated GP

B1: 抗埃博拉病毒糖蛋白GP1亚基的单克隆抗体4F1 (antibody, V domains shown)
VH: EVQLVESGGGLVQPGGSLRLSCAASGFSFRIYDMHWVRQVTGRGLEWVSAIGSASDTYYRDSVKGRFTISRENAKNSLYLQMNSLRAGDTAVYYCARASFGELMFDLWGQGTLVTVSS
VL: DIQMTQSPSSLSLSPGERATLSCRASQSVGSSLAWYQQKPGQAPRLLIYAASSRATGFPDRFSGSGSGTDFTLTISRLEPEDFAVYYCQQYGGSPLTFGGGTKVEIKT
- EC50 (EBOV GP): 5.7 ng/mL
- EC50 (sGP): 3.9 ng/mL
- EC50 (GP 95-295): 33 ng/mL
- fold decrease of binding activity relative to GPdTM (GP 95-295): ~5 fold
- EC50 (GP1): 7.8 ng/mL
